Target: the molecule itself
Assay: SAXS

B1: Staphylococcus aureus GbaA, disulfide cross-linked (oxidized) (natural protein)
chain: MRKDAKENRQRIEEIAHKLFDEEGVENISMNRIAKELGIGMGTLYRHFKDKSDLCYYVIQRDLDIFITHFKQIKDDYHSNYEVMQVSLDYLLQFKIDNKALLQCIEAGNNKLRFYQSAFYQELFDFYYDLFKSDDDTYTKFKTDMLLQSLSTSVFAFQIEHRHISIEAYRNYLLNIYLDEVGRND
modifications: intraprotomer disulfide C55-C104
stoichiometry N: 2

— publication PMC8025780 (Biochemistry, 2020)
